Measurements as given in patent US20220332804A1 (CSL INNOVATION, published 2022).

How the values were obtained:
human C2 V455A = molecular target: T1, human C2 V455A (human, UniProt P06681 21-752); experiment: SPR; KD relative to WT C2;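 note: biacore SPR at 37 °C, anti-C2 mAbs captured on an anti-human IgG chip, alanine or serine C2 surface mutants tested, KD from 1:1 fit compared with wild-type C2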
T1 sequence: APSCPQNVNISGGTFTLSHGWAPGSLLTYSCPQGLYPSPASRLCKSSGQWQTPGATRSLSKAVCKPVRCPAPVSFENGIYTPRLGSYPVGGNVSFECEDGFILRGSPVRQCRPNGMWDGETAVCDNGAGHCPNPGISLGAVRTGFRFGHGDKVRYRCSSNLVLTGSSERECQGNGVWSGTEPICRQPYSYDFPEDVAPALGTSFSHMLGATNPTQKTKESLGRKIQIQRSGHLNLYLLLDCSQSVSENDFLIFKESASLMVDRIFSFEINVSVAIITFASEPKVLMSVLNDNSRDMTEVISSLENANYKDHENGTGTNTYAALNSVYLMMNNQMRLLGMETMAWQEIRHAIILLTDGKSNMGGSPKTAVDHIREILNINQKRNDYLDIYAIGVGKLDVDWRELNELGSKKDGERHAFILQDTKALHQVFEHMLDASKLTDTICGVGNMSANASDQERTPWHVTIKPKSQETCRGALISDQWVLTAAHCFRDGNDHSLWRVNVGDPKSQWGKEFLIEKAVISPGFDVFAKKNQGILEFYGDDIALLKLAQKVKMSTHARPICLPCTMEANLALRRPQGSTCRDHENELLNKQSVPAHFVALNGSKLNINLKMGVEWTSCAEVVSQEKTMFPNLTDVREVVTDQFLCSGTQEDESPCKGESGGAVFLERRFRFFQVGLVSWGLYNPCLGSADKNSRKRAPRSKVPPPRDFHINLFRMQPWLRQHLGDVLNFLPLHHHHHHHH

human C2 D282A = molecular target: T2, human C2 D282A (human, UniProt P06681 21-752); experiment: SPR, antibody captured, C2 as analyte;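 note: biacore at 37 °C, anti-C2 mAbs held by immobilised goat anti-human IgG, C2 alanine or serine mutants injected, double-referenced sensorgrams fitted to a 1:1 kinetic or steady-state model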
T2 sequence: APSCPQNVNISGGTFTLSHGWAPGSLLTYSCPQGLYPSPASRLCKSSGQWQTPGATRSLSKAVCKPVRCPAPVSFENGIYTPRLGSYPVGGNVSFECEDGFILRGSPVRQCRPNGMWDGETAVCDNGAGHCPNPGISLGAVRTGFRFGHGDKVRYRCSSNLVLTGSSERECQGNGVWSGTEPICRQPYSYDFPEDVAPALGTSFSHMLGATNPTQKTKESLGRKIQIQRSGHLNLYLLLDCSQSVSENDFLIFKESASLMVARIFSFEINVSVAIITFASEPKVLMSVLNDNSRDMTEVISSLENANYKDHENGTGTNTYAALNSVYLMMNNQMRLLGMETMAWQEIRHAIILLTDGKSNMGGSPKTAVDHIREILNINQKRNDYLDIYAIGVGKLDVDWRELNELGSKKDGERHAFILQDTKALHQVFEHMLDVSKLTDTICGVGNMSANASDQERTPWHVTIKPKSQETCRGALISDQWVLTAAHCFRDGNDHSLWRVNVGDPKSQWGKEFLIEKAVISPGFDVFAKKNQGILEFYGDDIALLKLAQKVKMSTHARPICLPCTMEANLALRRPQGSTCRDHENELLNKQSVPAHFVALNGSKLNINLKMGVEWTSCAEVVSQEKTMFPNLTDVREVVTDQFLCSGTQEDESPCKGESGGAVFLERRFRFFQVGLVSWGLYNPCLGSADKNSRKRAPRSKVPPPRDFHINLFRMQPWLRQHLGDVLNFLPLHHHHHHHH

human C2 I272A = molecular target: T3, human C2 I272A (human, UniProt P06681 21-752); experiment: SPR, antibody captured, C2 as analyte;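 note: biacore at 37 °C, anti-C2 mAbs held by immobilised goat anti-human IgG, C2 alanine or serine mutants injected, double-referenced sensorgrams fitted to a 1:1 kinetic or steady-state model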
T3 sequence: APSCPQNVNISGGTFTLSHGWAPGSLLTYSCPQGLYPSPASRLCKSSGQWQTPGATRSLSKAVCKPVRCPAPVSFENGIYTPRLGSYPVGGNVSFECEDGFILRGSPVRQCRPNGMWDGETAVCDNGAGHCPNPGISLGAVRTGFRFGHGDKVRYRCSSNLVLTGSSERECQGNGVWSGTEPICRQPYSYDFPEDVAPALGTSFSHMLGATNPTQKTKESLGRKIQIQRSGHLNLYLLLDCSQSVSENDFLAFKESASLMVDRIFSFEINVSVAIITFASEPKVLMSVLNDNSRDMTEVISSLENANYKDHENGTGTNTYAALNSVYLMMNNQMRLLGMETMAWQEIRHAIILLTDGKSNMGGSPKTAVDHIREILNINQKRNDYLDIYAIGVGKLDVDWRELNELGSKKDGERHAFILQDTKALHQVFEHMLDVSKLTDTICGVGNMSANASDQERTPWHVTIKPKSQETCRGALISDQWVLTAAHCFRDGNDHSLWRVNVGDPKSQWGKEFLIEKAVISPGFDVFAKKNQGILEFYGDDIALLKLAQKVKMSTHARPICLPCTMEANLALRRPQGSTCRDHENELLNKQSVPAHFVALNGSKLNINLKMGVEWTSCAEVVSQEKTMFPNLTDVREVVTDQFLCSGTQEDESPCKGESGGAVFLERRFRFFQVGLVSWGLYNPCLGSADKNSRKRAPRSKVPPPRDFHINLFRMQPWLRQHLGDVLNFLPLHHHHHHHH

human C2 R688A = molecular target: T4, human C2 R688A (human, UniProt P06681 21-752); experiment: SPR, antibody captured, C2 as analyte;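 note: biacore at 37 °C, anti-C2 mAbs held by immobilised goat anti-human IgG, C2 alanine or serine mutants injected, double-referenced sensorgrams fitted to a 1:1 kinetic or steady-state model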
T4 sequence: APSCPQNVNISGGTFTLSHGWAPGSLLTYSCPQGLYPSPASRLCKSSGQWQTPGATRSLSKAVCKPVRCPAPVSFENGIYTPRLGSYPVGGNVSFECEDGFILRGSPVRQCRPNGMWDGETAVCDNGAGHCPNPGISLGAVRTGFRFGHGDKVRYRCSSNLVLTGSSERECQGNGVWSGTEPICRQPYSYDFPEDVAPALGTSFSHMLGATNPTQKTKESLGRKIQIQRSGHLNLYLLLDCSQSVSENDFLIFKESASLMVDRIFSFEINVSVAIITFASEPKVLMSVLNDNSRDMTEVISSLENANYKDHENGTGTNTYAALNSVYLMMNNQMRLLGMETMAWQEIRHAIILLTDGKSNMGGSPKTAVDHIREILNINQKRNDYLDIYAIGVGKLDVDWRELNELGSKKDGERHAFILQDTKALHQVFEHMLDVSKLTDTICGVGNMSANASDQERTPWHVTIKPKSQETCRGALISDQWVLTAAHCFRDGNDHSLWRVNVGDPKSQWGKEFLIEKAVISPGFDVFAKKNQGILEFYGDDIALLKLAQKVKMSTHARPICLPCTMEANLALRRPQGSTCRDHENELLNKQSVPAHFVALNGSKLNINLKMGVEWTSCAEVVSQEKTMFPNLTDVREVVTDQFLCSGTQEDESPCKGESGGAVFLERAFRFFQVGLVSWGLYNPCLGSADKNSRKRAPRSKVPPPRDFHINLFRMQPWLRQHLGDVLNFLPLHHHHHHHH

B1: RF16-214 (antibody, V domains shown)
VH: EVQLLESGGGLVQPGGSLRLSCAASGFTFSWYQMMWVRQAPGKGLEWVSRIYPSGGGTAYADSVKGRFTISRDNSKNTLYLQMNSLRAEDTAVYYCARDAGYGDNWGQGTLVTVSS
VL: QSALTQPPSVSVSPGQTASITCSGDKLGEKYASWYQQKAGQSPVMVIYQDRKRPSGIPERFSGSNSGNTATLTISGTQAMDEADYYCQAWDTRAVVFGGGTKLTVLG
For B1, the Fold diff (human C2 V455A) was 0 fold.

B2: RF16-242 (antibody, human IgG4 S228P, lambda, V domains shown)
VH: EVQLLQSGAEVKKPGESLKISCKGSGYSFTSYWIGWVRQMPGKGLEWMGIIYPGDSDTRYSPSFQGQVTISADKSISTAYLQWSSLKASDTAMYYCARRGHYGDYFDYWGQGTLVTVSS
VL: SYELTQPPSVSVSPGQTARITCSGDALPKKYAYWYHQKSGQAPVLVIYEDRRRPSEIPERFSGSSSGTMATLTITGAQVEDEGVYFCYSRDRAGNQRVFGGGTQLTVLG
notes: pH-dependent anti-C2 antibody from a phage display library
Binder B2 has a Kd (human C2 D282A) of 8 nM, a Kd (human C2 I272A) of 10.3 nM and a Kd (human C2 R688A) of 17.3 nM.
